Source: patent US6998239B1, “Method for identifying a modulator of the binding of CCX CKR polypeptide to a chemokine” (ChemoCentryx, Inc., priority 1999, dated 2006)
“Also recorded” adds a separate entry of the source.

Columns and labels:
CCX CKR [1] = target: T1, CCX CKR (Homo sapiens, UniProt Q9NPB9); assay: Adhesion of HEK293-CCX CKR cells to immobilized ELC-stalkokine and competition by soluble chemokines; format: cell-based; conditions: 5-10 ug/ml soluble recombinant chemokine as competitor
T1 construct: Full length CCX CKR expression constructs were made in pIRESpuro expression vector; expressed in transfected cells
T1 sequence (Q9NPB9 1-350): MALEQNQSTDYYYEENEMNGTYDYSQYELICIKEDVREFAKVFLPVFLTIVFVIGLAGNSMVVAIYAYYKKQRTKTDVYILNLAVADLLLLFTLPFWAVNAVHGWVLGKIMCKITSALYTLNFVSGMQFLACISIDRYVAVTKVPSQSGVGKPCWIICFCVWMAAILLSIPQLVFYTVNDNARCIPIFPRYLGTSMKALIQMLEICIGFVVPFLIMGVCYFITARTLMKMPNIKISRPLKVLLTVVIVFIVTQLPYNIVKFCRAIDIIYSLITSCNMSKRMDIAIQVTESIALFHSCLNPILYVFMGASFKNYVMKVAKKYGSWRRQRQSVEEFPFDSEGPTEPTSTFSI
From the text: “Stalkokine” technology was used to :identify the chemokines bound by the CCX CKR. Briefly, immobilized native chemokines alone are incapable of capturing cells bearing cognate receptors (Imai et al., 1997, Cell 91:521). We have developed non-native chemokine structures, stalkokines, comprising chemokine moieties engineered as N-terminal attachments to extended modified mucins (Bazan et al., 1997, Nature 385:640). In one embodiment, stalkokines, harvested in the supernatants of HEK293 cells after transient transfection, are anchored to solid substrates via antibodies against carrier domains (e.g. poly-His epitopes) engineered to the carboxyl terminus, leaving the chemokine domain free to interact with candidate orphan receptors.
To determine ligand binding to CCX CKR, HEK293-CCX CKR cells were used to interrogate chemokine ‘stalkokines’ (SK), i.e., molecules in which discrete chemokine domains were engineered to be tethered to the end of an extended stalk structure. […] In all cases, nonadherent cells were removed by washing in PBS; remaining adherent cells were fixed with 1% glutaraldehyde, photoimaged and counted. […]

CCX CKR [2] = target: T1, CCX CKR; assay: Small molecule screen: inhibition of 125I-ELC binding to HEK293 cells expressing CCX CKR; conditions: for Effect on binding between ELC and CCX CKR: 125I-ELC ~25-100 pM, compounds 1-5 μg/mL, ~3 hours at 4° C., HEK293 Flag-CCX CKR cells; for Type of modulator of CCX CKR function: Table 1, class given beside the label
Method: Source plates of chemical libraries were obtained from commercial vendors and contained individual compounds at 5 mg/mL in DMSO, or in some instances, at 1 mg/mL. From these, multiple compound plates containing 10 compounds in each well were made, and these were diluted in 20% DMSO to a concentration of 50 μg/mL (10 μg/mL for those beginning at 1 mg/mL). An aliquot of 20 μL of each mixture was put into the test plates, which were stored frozen until use.
HEK293 cells stably expressing the M1 flag epitope-tagged CCX CKR (described in Example 3, supra) were cultured in DMEM-10% FBS, and harvested when the concentration was between 0.5-1.0×10^6 cells/mL. The cells were centrifuged and resuspended in assay buffer (20 mM HEPES, 80 mM NaCl, 1 mM CaCl2, 5 mM MgCl2, and with 0.2% bovine serum albumin, pH 7.4) to a concentration of 5.6×10^6 cells/mL.
Using a Multi-Probe automated system, 0.09 mL of cells was added to each well of the assay test plates containing the compounds, followed by 0.09 mL of ^125I-MIPβ3/ELC (from Amersham Pharmacia Biotech) diluted in assay buffer (final concentration ˜25-100 pM, with ˜50,000 cpm per well). The final concentration of the compounds was 1-5 μg/mL each. The plates were sealed and incubated for approximately 3 hours at 4° C. on a shaker platform. The assay plates were harvested using Packard GP/B filter plates, pre-soaked in PEI solution, on the vacuum harvest apparatus. Scintillation fluid (50 μL) was added to each of the wells, the plates were sealed and counted in a Top Count scintillation counter. Control wells contained either diluent only (for total counts) or excess ELC (1 μg/mL, for non-specific binding) and were used to calculate the percent of total inhibition of ELC binding for each set of compounds.

CCX CKR [3] = target: T1, CCX CKR; assay: Ligand binding fingerprint: displacement of 125I-ELC from CCX CKR stable transfectants by cold chemokines; conditions: cold competitor 200 nM; human and murine ELC, SLC, TECK; comparable with 125I-TECK
From the text: In one embodiment, binding is detected as described by Dairaghi et al., 1997, J. Biol. Chem. 272:28206-209 (incorporated by reference in its entirety for all purposes) substituting CCX CKR transfectants for the CCR3 transfectants). In one embodiment, binding is detected using the filter based technique described by Dairaghi et al., 1999, J. Biol. Chem. 274:2156 (incorporated by reference in its entirety for all purposes), e.g., as shown in FIG. 4. Briefly, this technology employs expanded, efficiency-maximized radioligand binding utilizing filtration protocols. […] Filters are washed twice (25 mM HEPES, 500 mM NaCl, 1 mM CaCl25 mM MgCl2, adjusted to pH 7.1) and scintillant (e.g., MicroScint 20; 50 μl) is added to dried filters and counted (e.g., using a Packard Topcount scintillation counter). The competition dose-response curves is analyzed by standard methods to determine IC50 values (e.g., using GraphPad Prism software (San Diego, Calif.)). […]
In order to rapidly and thoroughly define a given chemokine receptor's ligand binding fingerprint, we have established an approach to comprehensively profile chemokine receptors using a large array of purified chemokines and chemokine variants. […] Employing radioligand binding of ^125I-labeled-ELC or ^125I-TECK to CCX CKR stable transfectants, chemokine specificity for the new receptor was determined. […]

CCX CKR [4] = target: T1, CCX CKR; assay: Radioligand binding competition with Scatchard transformation (binding constants); conditions: for Affinity class of CCX CKR ligands (summary of Examples 4-6): summary statement
From the text: In one embodiment, binding is detected as described by Dairaghi et al., 1997, J. Biol. Chem. 272:28206-209 (incorporated by reference in its entirety for all purposes) substituting CCX CKR transfectants for the CCR3 transfectants). In one embodiment, binding is detected using the filter based technique described by Dairaghi et al., 1999, J. Biol. Chem. 274:2156 (incorporated by reference in its entirety for all purposes), e.g., as shown in FIG. 4. Briefly, this technology employs expanded, efficiency-maximized radioligand binding utilizing filtration protocols. In these assays, 1×10^5 CCXCKR-293 HEK cells are incubated with […] (MlP3beta) (final concentration of ˜0.05 nM) in the presence of unlabeled chemokine for 3 h at 4° C. in 25 mM HEPES, 140 mM NaCl, 1 mM CaCl2, 5 mM MgCl2, and 0.2% bovine serum albumin, adjusted to pH 7.1. Reactions were aspirated onto PEI-treated GF/B glass filters using a cell harvester (Packard). Filters are washed twice (25 mM HEPES, 500 mM NaCl, 1 mM CaCl25 mM MgCl2, adjusted to pH 7.1) and scintillant (e.g., MicroScint 20; 50 μl) is added to dried filters and counted (e.g., using a Packard Topcount scintillation counter). The competition dose-response curves is analyzed by standard methods to determine IC50 values (e.g., using GraphPad Prism software (San Diego, Calif.)). Additionally, a Scatchard transformation can be used to estimate the receptor sites per cell (e.g., using WaveMetrics Igor software (Lake Oswego, Oreg.)).
Binding analysis was carried out using efficiency-maximized radioligand binding utilizing filtration protocols designated “Displace Max” (Dairaghi et al., 1999, J Biol. Chem. 274:21569). […]
The binding interactions identified in the primary screen were examined quantitatively by extensive radioligand binding competition to CCX CKR stable transfectants and Scatchard transformation of the displacement data (FIG. 4B). […]

CCX CKR [5] = target: T1, CCX CKR; assay: Ligand induced internalization of CCX CKR in 293 F-CCR10 cells (FACS, anti-Flag); format: cell-based; conditions: 100 nM chemokine, 37° C., 15 or 45 minutes
Method: 293 cells transfected with the Flag-CCX CKR fusion plasmid (i.e., “293 F-CCR10 cells;” see Example 3) were incubated at 37° C. with varying concentrations of chemokines (ELC, SLC, TECK, murine CTACK and MCP4) for 15 or 45 minutes. Following incubation, the cells were washed and fixed with 3% paraformaldehyde for 15 minutes on ice. The cells were stained with anti-Flag M1 antibody, followed by a PE-conjugated anti-mouse secondary antibody. FACS analysis were then carried out to determine surface expression of the receptor.
Results: A reduction in antibody binding in the presence of ligand is an indication of ligand-induced internalization of the receptor.

CCX CKR [6] = target: T1, CCX CKR; assay: Homologous competition binding of radiolabeled chemokine on HEK293-CCX CKR cells
From the text: Furthermore ELC-SK mediated adhesion was abolished in the presence of soluble native ELC as a competitor (FIG. 3A, top row). […] Moreover, radiolabeled ELC was used in a traditional homologous competition assay in the presence of increasing concentrations of unlabeled ELC. […] Taken together, the stalkokine-based adhesion and radiolabeled ligand binding/homologous competition assays indicate that CCX CKR is a new chemokine receptor that bound a novel compliment of chemokines.

CCX CKR [7] = target: T1, CCX CKR; assay: Preliminary chemotaxis analysis of CCX CKR transfectants; format: cell-based; conditions: preliminary chemotaxis analyses, not shown

Molecule: MCP-3: soluble chemokine, representative of non-competing chemokines
- Effect of soluble chemokine on ELC-SK mediated adhesion of HEK293-CCX CKR cells (CCX CKR [1]): no diminution in adhesion and not

Molecule: CC1CCCCN1CCCN(Cc1ccc(OCc2ccccc2)cc1)C(=O)NC12CCCC3CCC1CC2C3 (centres unmarked) [Compound II]
- Effect on binding between ELC and CCX CKR (CCX CKR [2]): inhibit binding
- Type of modulator of CCX CKR function (CCX CKR [2]): Com- pound II (antago- nist)

Molecule: BLC: CXC chemokine BLC
- Binding to CCX CKR by displacement of 125I-labeled ELC (CCX CKR [3]): lower affinity
- Affinity for CCX CKR in multipoint competition, in words (CCX CKR [4]; competition against 125I-ELC): of lesser affinity, also bound well
- Affinity class of CCX CKR ligands (summary of Examples 4-6) (CCX CKR [4]): lower affinity

Molecule: CC1CCCCN1CCCN(Cc1ccc(OCc2ccccc2)cc1)C(=O)Nc1ccc(Cl)c(Cl)c1 (centres unmarked) [Compound I]
- Effect on binding between ELC and CCX CKR (CCX CKR [2]): inhibit binding
- Type of modulator of CCX CKR function (CCX CKR [2]): Com- pound I (antago- nist)

Molecule: MCP4: chemokine used as non-binding control in internalization assay
- Internalization of the receptor (CCX CKR [5]): did not cause internalization

Molecule: ELC: EBII ligand chemokine, recombinant chemokine from R&D Systems
- Binding to CCX CKR by displacement of 125I-labeled ELC (CCX CKR [3]): bound well
- Binding of radiolabeled ELC, homologous competition with unlabeled ELC (CCX CKR [6]): significant binding
- Effect of soluble chemokine on ELC-SK mediated adhesion of HEK293-CCX CKR cells (CCX CKR [1]): ablation of adhesion; also recorded: abolished
- Migration of CCX CKR transfectants in response to chemokine (CCX CKR [7]): moderate migration
- Internalization of the receptor (CCX CKR [5]): Internalization of the receptor was observed
- Affinity class of CCX CKR ligands (summary of Examples 4-6) (CCX CKR [4]): high affinity

Molecule: CCC(c1nc2ccccc2c(=O)n1C)N(Cc1ccco1)C(=O)Nc1cccc(C(F)(F)F)c1 (centres unmarked) [Compound III]
- Effect on binding between ELC and CCX CKR (CCX CKR [2]): enhance binding
- Type of modulator of CCX CKR function (CCX CKR [2]): Com- pound III (agonist)
